For the data set the following is noted: whole UniProt chain shown.
Where [1] appears, read: Sulfolobus acidocaldarius (strain ATCC 33909 / DSM 639 / JCM 8929 / NBRC 15157 / NCIMB 11770), pH 7, Thermal, DSC, Acetate 10 mM, reversible: Yes.
Where [2] appears, read: Sulfolobus acidocaldarius (strain ATCC 33909 / DSM 639 / JCM 8929 / NBRC 15157 / NCIMB 11770), pH 7, Thermal, DSC, Unknown, reversible: yes.
[3] abbreviates: Thermus thermophilus, pH 7, Thermal, Fluorescence, potassium phosphate 50 mM, DTT 1 mM, reversible: yes.

Where “and” joins values, the source holds several entries; their conditions need not be identical. Equal entries are not always repeated.

B1: Inorganic pyrophosphatase wild type, P38576 (protein)
chain: MANLKSLPVGDKAPEVVHMVIEVPRGSGNKYEYDPDLGAIKLDRVLPGAQFYPGDYGFIPSTLAEDGDPLDGLVLSTYPLLPGVVVEVRVVGLLLMEDEKGGDAKVIGVVAEDQRLDHIQDIGDVPEGVKQEIQHFFETYKALEAKKGKWVKVTGWRDRKAALEEVRACIARYKG
As for B1, the Tm (as a rule, the temperature at the midpoint of the melting transition) worked out at 99 °C (Thermus thermophilus (strain ATCC 27634 / DSM 579 / HB8), pH 7, Thermal, CD, HEPES 20 mM, MgCl2 5 mM) and 86 °C (Thermus thermophilus (strain ATCC 27634 / DSM 579 / HB8), pH 7, Thermal, CD, HEPES 20 mM).

B2: Dihydrofolate reductase wild type, Q60034 (protein)
chain: MAKVIFVLAMDVSGKIASSVESWSSFEDRKNFRKITTEIGNVVMGRITFEEIGRPLPERLNVVLTRRPKTSNNPSLVFFNGSPADVVKFLEGKGYERVAVIGGKTVFTEFLREKLVDELFVTVEPYVFGKGIPFFDEFEGYFPLKLLEMRRLNERGTLFLKYSVEKSHR
On to B2, for which the denaturant m value came out at 13.2 kcal/mol/M (Thermotoga maritima (strain ATCC 43589 / DSM 3109 / JCM 10099 / NBRC 100826 / MSB8), pH 7.8, 5 °C, GdnHCl, CD, Potassium phosphate 10 mM, reversible: yes); 9.4 kcal/mol/M (Thermotoga maritima (strain ATCC 43589 / DSM 3109 / JCM 10099 / NBRC 100826 / MSB8), pH 7.8, 15 °C, GdnHCl, CD, Potassium phosphate 10 mM, reversible: yes); 4.71 kcal/mol/M (Thermotoga maritima (strain ATCC 43589 / DSM 3109 / JCM 10099 / NBRC 100826 / MSB8), pH 7.8, 15 °C, Urea, CD, Potassium phosphate 10 mM, reversible: yes); 7.15 kcal/mol/M (Thermotoga maritima (strain ATCC 43589 / DSM 3109 / JCM 10099 / NBRC 100826 / MSB8), pH 7.8, 25 °C, GdnHCl, CD, Potassium phosphate 10 mM, reversible: yes); 5.98 kcal/mol/M (Thermotoga maritima (strain ATCC 43589 / DSM 3109 / JCM 10099 / NBRC 100826 / MSB8), pH 7.8, 37 °C, GdnHCl, CD, Potassium phosphate 10 mM, reversible: yes); 6.24 kcal/mol/M (Thermotoga maritima (strain ATCC 43589 / DSM 3109 / JCM 10099 / NBRC 100826 / MSB8), pH 7.8, 55 °C, GdnHCl, CD, Potassium phosphate 10 mM, reversible: yes). The denaturant m value (Thermotoga maritima (strain ATCC 43589 / DSM 3109 / JCM 10099 / NBRC 100826 / MSB8), pH 7.8, 70 °C, GdnHCl, CD, Potassium phosphate 10 mM, reversible: yes) came out at 7.56 kcal/mol/M.

B3: Malate dehydrogenase, cytoplasmic wild type, P11708 (protein)
chain: MSEPIRVLVTGAAGQIAYSLLYSIGNGSVFGKDQPIILVLLDITPMMGVLDGVLMELQDCALPLLKDVIATDKEEIAFKDLDVAILVGSMPRRDGMERKDLLKANVKIFKCQGAALDKYAKKSVKVIVVGNPANTNCLTASKSAPSIPKENFSCLTRLDHNRAKAQIALKLGVTSDDVKNVIIWGNHSSTQYPDVNHAKVKLQAKEVGVYEAVKDDSWLKGEFITTVQQRGAAVIKARKLSSAMSAAKAICDHVRDIWFGTPEGEFVSMGIISDGNSYGVPDDLLYSFPVTIKDKTWKIVEGLPINDFSREKMDLTAKELAEEKETAFEFLSSA
Turning to B3, for the setting “Sus scrofa, pH 7.5, 25 °C, GdnHCl, Fluorescence, TEA 50 mM, MgCl2 20 mM, transition: 3”, the unfolding free energy is 5.9 kcal/mol and 6.4 kcal/mol.

B4: DNA-binding protein 7d wild type, P13123 (protein)
chain: MVKVKFKYKGEEKEVDTSKIKKVWRVGKMVSFTYDDNGKTGRGAVSEKDAPKELLDMLARAEREKK
B4: the Tm came out at 86.8 °C (Sulfolobus acidocaldarius (strain ATCC 33909 / DSM 639 / JCM 8929 / NBRC 15157 / NCIMB 11770), pH 4, Thermal, DSC, Potassium acetate 0.05 M, KCl 0.3 M, reversible: yes); 99.4 °C (Sulfolobus acidocaldarius (strain ATCC 33909 / DSM 639 / JCM 8929 / NBRC 15157 / NCIMB 11770), pH 6, Thermal, DSC, KH2PO4 0.01 M, KCl 0.1 M, reversible: yes); 90.7 °C under setting [1]; 90.7 °C under setting [2]. Moreover, the “heat capacity change of unfolding” value worked out at 0.71 kcal/mol/K under setting [1] and 0.71 kcal/mol/K under setting [2]. For the same protein, the “unfolding enthalpy (calorimetric)” value runs as follows: under setting [1], 58.5 kcal/mol; under setting [2], 58.5 kcal/mol.

B5: 3-isopropylmalate dehydrogenase wild type, P61495 (protein)
chain: MKVAVLPGDGIGPEVTEAALKVLRALDEAEGLGLAYEVFPFGGAAIDAFGEPFPEPTRKGVEEAEAVLLGSVGGPKWDGLPRKISPETGLLSLRKSQDLFANLRPAKVFPGLERLSPLKEEIARGVDVLIVRELTGGIYFGEPRGMSEAEAWNTERYSKPEVERVARVAFEAARKRRKHVVSVDKANVLEVGEFWRKTVEEVGRGYPDVALEHQYVDAAAMHLVRSPARFDVVVTGNIFGDILSDLASVLPGSLGLLPSASLGRGTPVFEPVHGSAPDIAGKGIANPTAAILSAAMMLEHAFGLVELARKVEDAVAKALLETPPPDLGGSAGTEAFTATVLRHLA
For B5, the denaturant m value (Thermus thermophilus, pH 7, 27 °C, Urea, Fluorescence, Potassium phosphate 50 mM, transition: 3, reversible: yes) is 1.2 kcal/mol/M and 1.41 kcal/mol/M. Also, the midpoint of thermal melting (Tm) reads like this: (Thermus thermophilus, pH 7, Thermal, CD, phosphate 20 mM) 87 °C; (Thermus thermophilus, pH 7, Thermal, CD, sodium phosphate, ammonium sulfate 1.0-1.5 M) 87 °C; under setting [3], 30.9 °C; (Thermus thermophilus, pH 7.6, Thermal, Activity, potassium phosphate 20 mM, reversible: No) 84.7 °C; (Thermus thermophilus, pH 7.6, Thermal, CD, phosphate 20 mM, reversible: No) 87.4 °C; (Thermus thermophilus, pH 10.4, Thermal, CD, NaHCO3 20 mM) 87 °C. Also, the “heat capacity change of unfolding” value under setting [3] was determined as 1.73 kcal/mol/K. The “unfolding enthalpy (van 't Hoff)” value under setting [3] was found to be 15.8 kcal/mol.

B6: Subtilisin inhibitor wild type, P01006 (protein)
chain: MRNTGAGPSPSVSRPPPSAAPLSGAALAAPGDAPSALYAPSALVLTVGKGVSATTAAPERAVTLTCAPGPSGTHPAAGSACADLAAVGGDLNALTRGEDVMCPMVYDPVLLTVDGVWQGKRVSYERVFSNECEMNAHGSSVFAF
For the protein B6, the Tm runs as follows: (Streptomyces albogriseolus, pH 2.45, Thermal, CD, glycine 25 mM, reversible: yes) 21.6 °C; (Streptomyces albogriseolus, pH 2.72, Thermal, CD, glycine 25 mM, reversible: yes) 31.6 °C; (Streptomyces albogriseolus, pH 2.87, Thermal, CD, glycine 25 mM, reversible: yes) 35.7 °C; (Streptomyces albogriseolus, pH 3.21, Thermal, CD, glycine 25 mM, reversible: yes) 45.8 °C. Further, the unfolding free energy (Streptomyces albogriseolus, pH 3.21, 20 °C, Thermal, CD, glycine 25 mM, reversible: yes) was determined as 4.07 kcal/mol.

Values taken from FireProtDB.
